Measured values: publication PMC11387744

Molecular target: KDM2B^F-box-LRRs/SKP1 dimer (UniProt Q8NHM5)
Experiment: ITC

Sequence of KDM2B^F-box-LRRs/SKP1 dimer (Q8NHM5 1059-1336, chain 1 of 2): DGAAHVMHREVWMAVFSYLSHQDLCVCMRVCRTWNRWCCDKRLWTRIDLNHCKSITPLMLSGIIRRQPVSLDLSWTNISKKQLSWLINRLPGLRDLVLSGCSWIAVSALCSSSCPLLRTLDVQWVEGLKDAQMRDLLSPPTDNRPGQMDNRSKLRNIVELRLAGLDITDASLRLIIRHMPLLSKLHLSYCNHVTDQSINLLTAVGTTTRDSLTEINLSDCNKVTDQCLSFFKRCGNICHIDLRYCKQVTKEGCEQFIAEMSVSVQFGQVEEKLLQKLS
Sequence of KDM2B^F-box-LRRs/SKP1 dimer (P63208 2-163, chain 2 of 2, further chain): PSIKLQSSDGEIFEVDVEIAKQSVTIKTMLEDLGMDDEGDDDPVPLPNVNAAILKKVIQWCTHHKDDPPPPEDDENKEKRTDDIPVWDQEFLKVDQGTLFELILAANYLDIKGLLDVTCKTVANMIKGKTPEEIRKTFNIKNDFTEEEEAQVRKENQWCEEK

fold reduction of the affinity against the wild-type pair [fold] | Substance
> 2.5 | BCOR^N1607 (D/E on Poly-D/E^2nd (1607–1611) mutated to Ala)/PCGF1^RAWUL (from UniProt Q6W2J9 1607-1755; Q9BSM1 150-255) (complex)
> 12 | BCOR^N1607 (D/E on Poly-D/E^3rd (1624–1631) mutated to Ala)/PCGF1^RAWUL (from UniProt Q6W2J9 1607-1755; Q9BSM1 150-255) (complex)
